What was measured:
[1] = molecular target: Fyn (UniProt P39688); test: proximity ligation assay (PLA), Fyn3 + Tau5 antibodies (total tau); conditions: transfected Mapt-/- neurons; n = 16-31 neurons per construct from two experiments; parent: est. 1.0; read off a plot
[2] = molecular target: Fyn (UniProt P39688); test: proximity ligation assay (PLA), Fyn3 + Tau1 antibodies (tau unphosphorylated at S198/S199/S202); conditions: transfected Mapt-/- neurons; n = 16-31 neurons per construct from two experiments; parent: est. 1.0; read off a plot

**Q.** Which ratio to parent [1] does the source give for “wildtype 0N4R mouse tau (mTau^WT) P216A; P219A” here?
**A.** Its ratio to parent is 0.41.

**Q.** What about the ratio to parent [2] of the same substance?
**A.** The ratio to parent was 1.1.

**Q.** What does the source list for “wildtype 0N4R mouse tau (mTau^WT) P233A; P236A”?
**A.** ratio to parent [1]: 0.2; ratio to parent [2]: 0.2

**Q.** How did the ratio to parent [1] turn out when wildtype 0N4R mouse tau (mTau^WT) Y18F was run?
**A.** Its ratio to parent is 0.3.

**Q.** And the ratio to parent [2]?
**A.** The ratio to parent was 1.7.

From PMC5438564
